US20240376218A1

Assays:
[1] = molecular target: human CCR8 tagged with ProLink (human); test: cell-based or functional assay
human CCR8 (human) = human CCR8 (human) (UniProt P51685); test: cell-based or functional assay
[2] = molecular target: human CCR4 (P51679_CCR4_HUMAN) (human) (UniProt P51679); test: cell-based or functional assay
human CCR4 (human) = human CCR4 (human) (UniProt P51679); test: cell-based or functional assay
[3] = molecular target: FcRn immobilized on FcRn column (Roche, Order No. 8128057001); test: FcRn affinity chromatography, linear pH gradient
[4] = molecular target: cynomolgus CCR8 (cynomolgus); test: FACS, CHO cells expressing cynomolgus CCR8, signal at saturation
murine CCR8 (mouse) = murine CCR8 (mouse) (UniProt P56484); test: cell-based or functional assay
Sequence of murine CCR8 (mouse) (P56484 whole entry): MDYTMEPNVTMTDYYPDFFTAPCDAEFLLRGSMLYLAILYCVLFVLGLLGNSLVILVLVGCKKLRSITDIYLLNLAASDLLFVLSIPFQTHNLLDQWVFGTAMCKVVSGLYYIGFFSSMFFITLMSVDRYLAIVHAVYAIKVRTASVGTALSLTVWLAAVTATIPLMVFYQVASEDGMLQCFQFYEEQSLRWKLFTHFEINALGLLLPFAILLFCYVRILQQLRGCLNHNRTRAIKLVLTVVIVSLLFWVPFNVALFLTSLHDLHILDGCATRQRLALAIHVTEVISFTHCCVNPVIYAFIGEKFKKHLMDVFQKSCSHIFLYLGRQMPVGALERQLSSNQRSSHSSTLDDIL

Sequence of human CCR4 (P51679_CCR4_HUMAN) (human) (P51679 whole entry): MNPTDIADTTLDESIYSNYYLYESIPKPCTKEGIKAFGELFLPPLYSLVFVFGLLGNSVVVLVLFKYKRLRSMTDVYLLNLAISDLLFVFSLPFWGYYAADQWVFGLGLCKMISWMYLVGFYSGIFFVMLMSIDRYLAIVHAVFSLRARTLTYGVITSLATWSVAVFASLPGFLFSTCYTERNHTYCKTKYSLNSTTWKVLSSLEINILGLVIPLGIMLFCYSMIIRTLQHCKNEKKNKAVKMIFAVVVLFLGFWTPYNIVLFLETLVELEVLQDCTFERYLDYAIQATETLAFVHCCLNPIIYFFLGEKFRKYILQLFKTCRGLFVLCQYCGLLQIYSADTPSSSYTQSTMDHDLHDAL
Sequence of human CCR4 (human) (P51679 whole entry): as above
Sequence of FcRn immobilized on FcRn column (Roche, Order No. 8128057001) (P55899 24-297, chain 1 of 2): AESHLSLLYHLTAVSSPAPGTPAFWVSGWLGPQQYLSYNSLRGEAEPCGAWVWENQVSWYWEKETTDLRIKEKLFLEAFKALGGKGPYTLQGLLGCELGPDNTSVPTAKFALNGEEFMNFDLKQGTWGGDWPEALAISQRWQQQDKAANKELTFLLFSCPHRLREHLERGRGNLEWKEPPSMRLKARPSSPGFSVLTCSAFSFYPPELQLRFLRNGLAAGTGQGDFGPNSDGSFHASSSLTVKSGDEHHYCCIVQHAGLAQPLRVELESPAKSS
Sequence of FcRn immobilized on FcRn column (Roche, Order No. 8128057001) (P61769 21-119, chain 2 of 2, further chain): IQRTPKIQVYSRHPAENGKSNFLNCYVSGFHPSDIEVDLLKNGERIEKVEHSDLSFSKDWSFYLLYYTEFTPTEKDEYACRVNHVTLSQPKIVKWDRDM
Sequence of cynomolgus CCR8 (cynomolgus) (O97665 other isoform, or with tags, fused parts or gaps): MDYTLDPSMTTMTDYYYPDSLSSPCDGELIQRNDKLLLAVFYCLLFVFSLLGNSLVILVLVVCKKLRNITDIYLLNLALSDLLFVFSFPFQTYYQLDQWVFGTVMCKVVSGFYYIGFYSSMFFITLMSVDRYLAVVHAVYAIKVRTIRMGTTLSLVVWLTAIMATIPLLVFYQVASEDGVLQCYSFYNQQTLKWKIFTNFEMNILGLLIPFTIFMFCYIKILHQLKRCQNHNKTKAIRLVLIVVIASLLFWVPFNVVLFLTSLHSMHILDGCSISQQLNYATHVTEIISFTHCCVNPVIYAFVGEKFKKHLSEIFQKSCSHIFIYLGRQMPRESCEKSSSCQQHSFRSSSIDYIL
Sequence of Ustekinumab (antibody) (HC): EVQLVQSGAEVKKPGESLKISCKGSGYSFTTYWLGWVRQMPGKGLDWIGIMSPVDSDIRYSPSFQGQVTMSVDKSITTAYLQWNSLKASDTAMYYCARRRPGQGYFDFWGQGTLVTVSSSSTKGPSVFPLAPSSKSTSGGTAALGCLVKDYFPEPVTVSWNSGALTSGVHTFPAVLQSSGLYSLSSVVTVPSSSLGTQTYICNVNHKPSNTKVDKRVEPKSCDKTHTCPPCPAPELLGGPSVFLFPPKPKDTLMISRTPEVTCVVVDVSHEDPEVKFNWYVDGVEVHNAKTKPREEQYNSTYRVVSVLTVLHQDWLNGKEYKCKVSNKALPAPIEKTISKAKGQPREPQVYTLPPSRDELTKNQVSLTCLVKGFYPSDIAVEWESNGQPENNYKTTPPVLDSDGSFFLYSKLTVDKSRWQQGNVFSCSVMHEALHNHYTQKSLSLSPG
Sequence of Ustekinumab (antibody) (LC): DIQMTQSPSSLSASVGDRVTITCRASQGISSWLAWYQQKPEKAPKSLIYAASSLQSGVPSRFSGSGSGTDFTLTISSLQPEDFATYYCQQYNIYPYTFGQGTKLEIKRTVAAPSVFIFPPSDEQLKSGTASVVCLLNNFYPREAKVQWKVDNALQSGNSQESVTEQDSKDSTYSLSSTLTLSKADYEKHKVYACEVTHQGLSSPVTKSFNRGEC

Question: Which results are given for L263G8 (antibody)?
Answer: IC50 in nM for inhibition of CCL1 induced β-arrestin signaling (DiscoverX assay), CHO with hCCR8 [1]: 13.8 nM; Ca flux assay IC50 (nM), block of signaling induced by CCL1 at 60 ng/ml; CHO cells expressing human CCR8 (human CCR8 (human)): 1.26 nM; Ca flux assay Span ratio (from max to min), block of signaling induced by CCL1 at 60 ng/ml; CHO cells expressing human CCR8 (human CCR8 (human)): 921; Internalization [fold isotype], HuT78 cells, BODIPY FL-labelled antibody (human CCR8 (human)): 22 fold isotype

Question: Which ADCC EC50, activated Tregs + NK92v, Donor 1213 [2] does the source give for Mogamulizumab (antibody) here?
Answer: 0.31 nM

Question: What about the ADCC EC50, activated Tregs + NK92v, Donor 1730 [2] of the same substance?
Answer: 1.09 nM

Question: And the ADCC Max Response, activated Tregs + NK92v, Donor 1213 [2]?
Answer: 58%

Question: What about the ADCC Max Response, activated Tregs + NK92v, Donor 1730 [2] of the same substance?
Answer: 65%

Question: And the ADCC Max Response (%); activated human Tregs (Donor 1100) as target cells, NK92v effector cells (human CCR4 (human))?
Answer: 96%

Question: And the ADCC Max Response (%); activated human Tregs (Donor 1100), NK92v effector cells (human CCR4 (human))?
Answer: 74%

Question: And the ADCC Max Response (%); activated human Tregs (Donor 1261), NK92v effector cells (human CCR4 (human))?
Answer: 71%

Question: And the ADCC hTreg EC50 (pM); activated human Tregs (Donor 1100) as target cells, NK92v effector cells (human CCR4 (human))?
Answer: 35.2 pM

Question: And the ADCC hTreg EC50 (pM); activated human Tregs (Donor 1100), NK92v effector cells (human CCR4 (human))?
Answer: 193 pM

Question: And the ADCC hTreg EC50 (pM); activated human Tregs (Donor 1261), NK92v effector cells (human CCR4 (human))?
Answer: 86.4 pM

Question: For “CCL1 (human) (from UniProt P22362 24-96) (ligand)”, which EC80 of β-arrestin signaling (DiscoverX assay) [1] is on record?
Answer: 0.02 µg/mL

Question: Which pH at Elution [3] does the source give for Briakinumab (antibody) here?
Answer: 7.85 pH

Question: Which pH at Elution [3] does the source give for Ustekinumab (antibody) here?
Answer: 7.22 pH

Question: With L263G8 (Biolegend) (antibody) as the substance, how does the MFI [4] read?
Answer: < 1000

Question: SA214G2 (antibody) was tested. Which Internalization [fold isotype], mBW5147.3 cells, BODIPY FL-labelled antibody (murine CCR8 (mouse)) did it give?
Answer: 11 fold isotype
